Substrate in data set [1]: C=C(C)CCO[P@@](=O)(O)OP(=O)(O)O
Kind of data set: purified protein. As to conditions: 5-80 μM 14C-IPP at 150 μM zzFPP; labelled compound.

Substrate in data set [2]: CC(C)=CCC/C(C)=C\CC/C(C)=C\COP(=O)(O)OP(=O)(O)O
Nature of the data set: purified protein. The format is biochemical, Solanum lycopersicum. As to conditions: 10-80 μM zzFPP at 50 μM 14C-IPP.

The term Km denotes the substrate concentration at which the rate is half of its maximum. For orientation: kcat means the number of substrate molecules converted per active site and unit of time at saturation. A word on the kcat/Km: it is the turnover number divided by the Michaelis constant.

B1: CPT2 (Solanum lycopersicum) (protein)
chain: MSDRGLSKISCSLSLQTEKLRYDNDDNDDLELHEELIPKHIALIMDGNRRWAKAKGLEVYEGHKLIIPKLKEICDISSKLGIQVITAFAFSTENWKRSKEEVDFLMQLFEEFFNEFLRFGVRVSVIGCKSNLPMTLQKCIALTEETTKGNKGLHLVIALNYGGYYDILQATKSIVNKAMNGLLDVEDINKNLFEQELESKCPNPDLLIRTGGEQRVSNFLLWQLAYTEFYFTNTLFPDFGEKDLKKAILNFQQRHRRFGGHTY
notes: N-terminal putative transit peptide (51 residues, 153 nt) deleted; vector pEXP5-CT/TOPO; E. coli BL21 (DE3)
As for B1, in data set [1], the Michaelis-Menten constant (Km) turned out to be 3.8 ± 0.3 µM, the kcat was determined as 0.0026 s⁻¹ and the kcat/Km was 680 M⁻¹ s⁻¹. Besides, in data set [2], the Km worked out at 22.9 ± 1.1 µM, the kcat came to 0.0026 ± 0.0001 s⁻¹ and the kcat/Km was determined as 110 ± 10 M⁻¹ s⁻¹.

For the origin of these results see paper PMC4364678, “Biosynthesis of the Diterpenoid Lycosantalonol via Nerylneryl Diphosphate in Solanum lycopersicum” (PLoS ONE, 2015).
